The text below walks through data of publication PMC10396304.

Test [1] deals with AoLadC, LOV-activated diguanylate cyclase from Aquella oligotrophica (Aquella oligotrophica). Briefly: SEC-MALS; Superdex 200 Increase 10/300 GL in storage buffer, 500-1000 ug protein, dark-adapted state (non-actinic light); miniDAWN MALS detector. A general note: In gel filtration, larger molecules generally elute earlier.
Test [2] shares this target. Briefly: SEC-MALS; Superdex 200 Increase 10/300 GL in storage buffer, 500-1000 ug protein, illuminated state (blue light 465 nm for 1 min before loading and during the whole run); miniDAWN MALS detector.
For test [3], the target named is DpLadC, LOV-activated diguanylate cyclase from Deinococcus peraridilitoris DSM 19664 (Deinococcus peraridilitoris DSM 19664). Briefly: SEC-MALS; Superdex 200 Increase 10/300 GL in storage buffer, 500-1000 ug protein, dark-adapted state (non-actinic light); miniDAWN MALS detector.
Test [4] shares this target. The test is described as follows: SEC-MALS; Superdex 200 Increase 10/300 GL in storage buffer, 500-1000 ug protein, illuminated state (blue light 465 nm for 1 min before loading and during the whole run); miniDAWN MALS detector.
For test [5], the target named is SfLadC, LOV-activated diguanylate cyclase from Serratia fonticola AU-AP2C (Serratia fonticola AU-AP2C). The test is described as follows: SEC-MALS; Superdex 200 Increase 10/300 GL in storage buffer, 500-1000 ug protein, dark-adapted state (non-actinic light); miniDAWN MALS detector.
Test [6] shares this target. Briefly: SEC-MALS; Superdex 200 Increase 10/300 GL in storage buffer, 500-1000 ug protein, illuminated state (blue light 465 nm for 1 min before loading and during the whole run); miniDAWN MALS detector.
The target in test [7] is MsLadC, LOV-activated diguanylate cyclase from Methylotenera sp. (Methylotenera sp.). Briefly: SEC-MALS; Superdex 200 Increase 10/300 GL in storage buffer, 500-1000 ug protein, dark-adapted state (non-actinic light); miniDAWN MALS detector.
Test [8] shares this target. Briefly: SAXS; steady-state dark-adapted sample, BM29 ESRF, 20°C in the capillary, MsLadC 0.8 mg/ml, NT-AoLadC 0.9 mg/ml; molecular weight from Porod volume and volume of correlation.
The target is the same in test [9]. Briefly: SEC-MALS; Superdex 200 Increase 10/300 GL in storage buffer, 500-1000 ug protein, illuminated state (blue light 465 nm for 1 min before loading and during the whole run); miniDAWN MALS detector.
The target is the same in test [10]. The test is described as follows: SAXS; steady-state light-adapted sample (blue light 465 nm), BM29 ESRF, 20°C in the capillary, MsLadC 0.8 mg/ml, NT-AoLadC 0.9 mg/ml; molecular weight from Porod volume and volume of correlation.

A word on the stoichiometry N: it is the number of molecules, sites or subunits per partner or assembly. With “AoLadC, LOV-activated diguanylate cyclase from Aquella oligotrophica (enzyme)”, the stoichiometry N in test [1] and in test [2] was 2 each time.

Take “DpLadC, LOV-activated diguanylate cyclase from Deinococcus peraridilitoris DSM 19664 (enzyme)”: the stoichiometry N in test [3] and in test [4] was 2 each time.

As for “SfLadC, LOV-activated diguanylate cyclase from Serratia fonticola AU-AP2C (enzyme)”, the stoichiometry N in [5] and in test [6] was 2 throughout.

Turning to “MsLadC, LOV-activated diguanylate cyclase from Methylotenera sp. (enzyme)”, the stoichiometry N in test [7], in test [8], in [9] and in test [10] was 2 throughout.
